Legend:
Type in all cases: biochemical
rec. human Factor VIIa = molecular target: T1, rec. human Factor VIIa (Homo sapiens, UniProt P08709); experiment: Protease inhibitory activity assay, Factor VIIa; settings: 1 μM inhibitor; Factor VIIa 300 nM; H-D-Ile-Pro-Arg-pNA 0.6 mM; 25° C.
T1 construct: rec. human Factor VIIa; purchased Novo Nordisk A/S
T1 sequence (P08709 61-212 limits assumed): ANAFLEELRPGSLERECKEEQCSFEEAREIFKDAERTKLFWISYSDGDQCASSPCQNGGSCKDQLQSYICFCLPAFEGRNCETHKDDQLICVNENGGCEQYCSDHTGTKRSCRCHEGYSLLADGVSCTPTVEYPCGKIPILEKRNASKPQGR
T1 sequence (P08709 213-466 limits assumed): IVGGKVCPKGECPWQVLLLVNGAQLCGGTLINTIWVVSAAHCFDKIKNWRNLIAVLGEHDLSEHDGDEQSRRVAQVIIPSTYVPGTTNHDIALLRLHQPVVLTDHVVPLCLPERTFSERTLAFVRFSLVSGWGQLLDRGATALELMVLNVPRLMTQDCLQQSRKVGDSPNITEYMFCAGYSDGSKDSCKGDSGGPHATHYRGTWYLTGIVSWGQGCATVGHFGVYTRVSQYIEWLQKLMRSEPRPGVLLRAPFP
Experimental: H--D--Ile--Pro--Arg--pNA
(§1) Inhibition assays were performed in microtiter wells in a total volume of 300 μl in 10 mM NaCl, 50 mM Tris-HCl (pH 7.4), 0.01% TWEEN80 (Polyoxyethylenesorbitan monoleate). The reactions were incubated at 25° C. for ten minutes after which the appropriate chromogenic substrate was added to the final concentration listed in Table 2 and the final reaction was incubated for thirty minutes at 25° C. Amidolytic activity was measured at 405 nm or by fluorescence Em at 460 nm.

Plasmin = molecular target: T2, Plasmin (Homo sapiens, UniProt P00747); experiment: Protease inhibitory activity assay, plasmin; settings: 1 μM inhibitor; plasmin 10 nM; H-D-Val-Leu-Lys-pNA 0.6 mM; 25° C.
T2 construct: Plasmin (10 nM); purchased Kabi
T2 sequence (P00747 97-580 limits assumed): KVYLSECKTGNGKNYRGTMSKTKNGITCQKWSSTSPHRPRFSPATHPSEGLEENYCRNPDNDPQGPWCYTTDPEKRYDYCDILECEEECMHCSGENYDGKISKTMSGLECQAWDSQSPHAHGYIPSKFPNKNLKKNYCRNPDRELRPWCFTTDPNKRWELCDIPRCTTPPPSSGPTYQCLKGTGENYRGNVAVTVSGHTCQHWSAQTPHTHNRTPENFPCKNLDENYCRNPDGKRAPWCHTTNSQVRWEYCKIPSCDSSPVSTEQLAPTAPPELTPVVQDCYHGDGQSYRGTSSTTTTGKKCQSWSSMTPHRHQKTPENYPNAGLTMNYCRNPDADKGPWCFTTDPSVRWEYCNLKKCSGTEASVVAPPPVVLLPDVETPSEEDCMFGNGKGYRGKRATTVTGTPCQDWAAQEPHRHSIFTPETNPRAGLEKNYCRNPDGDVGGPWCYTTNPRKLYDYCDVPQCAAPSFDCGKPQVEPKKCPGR
T2 sequence (P00747 581-810 limits assumed): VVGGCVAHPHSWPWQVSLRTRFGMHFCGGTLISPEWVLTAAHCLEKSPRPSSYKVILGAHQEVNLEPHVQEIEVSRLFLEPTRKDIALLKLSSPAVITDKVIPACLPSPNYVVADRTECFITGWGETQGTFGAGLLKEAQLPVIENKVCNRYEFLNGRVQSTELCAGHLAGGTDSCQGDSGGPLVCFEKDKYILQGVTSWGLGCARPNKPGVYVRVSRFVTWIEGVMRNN
Experimental: H--D--Val--Leu--Lys--pNA
as §1

[1] = molecular target: T3, rec. Protein Ca (activated protein C) (Homo sapiens, UniProt P04070); experiment: Protease inhibitory activity assay, activated protein C; settings: 1 μM inhibitor; rec. Protein Ca 5 nM; <Glu-Pro-Arg-pNA 0.6 mM; 25° C.
T3 construct: purchased Novo Nordisk A/S
T3 sequence (P04070 43-197 limits assumed): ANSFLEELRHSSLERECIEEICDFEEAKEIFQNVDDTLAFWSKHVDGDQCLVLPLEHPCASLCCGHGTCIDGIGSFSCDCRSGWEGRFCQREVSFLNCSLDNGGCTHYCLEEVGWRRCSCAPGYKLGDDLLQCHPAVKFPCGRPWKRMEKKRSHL
T3 sequence (P04070 212-461 limits assumed): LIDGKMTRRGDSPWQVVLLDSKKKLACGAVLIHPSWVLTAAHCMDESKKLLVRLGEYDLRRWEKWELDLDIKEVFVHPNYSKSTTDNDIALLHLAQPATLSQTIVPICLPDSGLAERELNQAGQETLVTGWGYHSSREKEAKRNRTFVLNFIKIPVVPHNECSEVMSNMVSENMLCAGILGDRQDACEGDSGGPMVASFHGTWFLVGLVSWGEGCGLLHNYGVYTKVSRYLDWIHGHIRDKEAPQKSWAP
Experimental: as §1
r.h. refers to recombinant human, h. refers to human, protein Ca refers t
activated protein C; APPH refers to the KunitzType inhibitor domain of […]

human Factor XIIa = molecular target: T4, human Factor XIIa (Homo sapiens, UniProt P00748); experiment: Protease inhibitory activity assay, Factor XIIa; settings: 1 μM inhibitor; Factor XIIa 30 nM; H-D-Pro-Phe-Arg-pNA 0.6 mM; 25° C.
T4 construct: human Factor XIIa (30 nM); purchased Dr. Walt Kisiel, University of New Mexico, Albuquerque, NM
T4 sequence (P00748 20-372 limits assumed): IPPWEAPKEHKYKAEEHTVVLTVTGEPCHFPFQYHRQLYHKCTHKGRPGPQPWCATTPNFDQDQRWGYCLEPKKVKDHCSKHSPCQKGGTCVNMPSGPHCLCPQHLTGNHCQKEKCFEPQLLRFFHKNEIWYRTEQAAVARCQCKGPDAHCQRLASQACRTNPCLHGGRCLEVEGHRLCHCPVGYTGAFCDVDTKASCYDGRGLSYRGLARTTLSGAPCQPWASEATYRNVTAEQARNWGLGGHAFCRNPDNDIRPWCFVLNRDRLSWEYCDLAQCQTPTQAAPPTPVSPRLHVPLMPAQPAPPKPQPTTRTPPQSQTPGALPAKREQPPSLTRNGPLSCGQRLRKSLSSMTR
T4 sequence (P00748 373-615 limits assumed): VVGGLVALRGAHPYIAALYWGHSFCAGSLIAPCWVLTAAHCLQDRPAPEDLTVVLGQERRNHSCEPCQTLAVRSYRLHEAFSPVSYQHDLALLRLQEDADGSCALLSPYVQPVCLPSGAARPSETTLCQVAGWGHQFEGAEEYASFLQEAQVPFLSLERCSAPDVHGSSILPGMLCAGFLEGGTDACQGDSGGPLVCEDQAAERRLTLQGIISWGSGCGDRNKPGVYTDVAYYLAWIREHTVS
Experimental: human Factor XIIa (30 nM)
(§2) H--D--Pro--Phe--Arg--pNA
as §1

[2] = molecular target: T5, PL Kallikrein (plasma kallikrein) (Homo sapiens, UniProt P03952); experiment: Protease inhibitory activity assay, plasma kallikrein; settings: 1 μM inhibitor; PL kallikrein 3 nM; H-D-Pro-Phe-Arg-pNA 0.6 mM; 25° C.
T5 construct: purchased Kabi
T5 sequence (P03952 20-390 limits assumed): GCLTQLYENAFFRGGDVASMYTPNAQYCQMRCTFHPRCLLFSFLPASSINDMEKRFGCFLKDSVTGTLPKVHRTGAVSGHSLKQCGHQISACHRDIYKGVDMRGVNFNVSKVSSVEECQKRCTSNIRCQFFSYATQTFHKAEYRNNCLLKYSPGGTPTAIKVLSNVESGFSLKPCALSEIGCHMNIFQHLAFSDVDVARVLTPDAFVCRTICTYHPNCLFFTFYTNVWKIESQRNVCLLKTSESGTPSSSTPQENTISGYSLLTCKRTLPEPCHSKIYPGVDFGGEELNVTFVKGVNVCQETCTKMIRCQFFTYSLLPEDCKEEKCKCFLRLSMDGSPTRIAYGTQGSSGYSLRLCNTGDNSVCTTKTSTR
T5 sequence (P03952 391-638 limits assumed): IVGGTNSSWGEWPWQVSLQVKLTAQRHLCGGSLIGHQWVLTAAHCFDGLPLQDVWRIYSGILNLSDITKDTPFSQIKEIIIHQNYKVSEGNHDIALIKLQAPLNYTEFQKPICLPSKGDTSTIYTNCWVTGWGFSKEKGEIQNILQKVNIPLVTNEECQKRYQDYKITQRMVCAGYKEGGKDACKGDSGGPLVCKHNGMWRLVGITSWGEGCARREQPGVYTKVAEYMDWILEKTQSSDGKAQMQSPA
Experimental: as §2
(§3) Abbreviations in Table 2: rec. refers to recombinant, GL kallikrein refer
(§4) to glandular kallikrein, and PL kallikrein refers to plasma kallikrein.
as §1

Leukocyte Elastase = molecular target: T6, Leukocyte Elastase (Homo sapiens, UniProt P08246); experiment: Protease inhibitory activity assay, leukocyte elastase; settings: 1 μM inhibitor; MeO-Suc-Ala-Ala-Pro-Val-pNA 0.6 mM; 25° C.
T6 construct: purified at Novo Nordisk A/S; tissue Novo Nordisk A/S (purified there); host or cells: leukocytes
T6 sequence (P08246 30-267): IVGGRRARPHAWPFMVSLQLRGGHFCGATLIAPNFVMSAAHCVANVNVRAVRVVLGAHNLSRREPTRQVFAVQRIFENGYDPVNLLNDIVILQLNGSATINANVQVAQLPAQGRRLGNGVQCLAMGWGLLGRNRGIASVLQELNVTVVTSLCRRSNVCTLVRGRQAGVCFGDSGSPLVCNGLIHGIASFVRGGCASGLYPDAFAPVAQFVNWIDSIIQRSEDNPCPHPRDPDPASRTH
Experimental: MeO--Suc--Ala--Ala--Pro--Val--pNA
(§5) purified at Novo Nordisk A/S
as §1

human Factor XIa = molecular target: T7, human Factor XIa (Homo sapiens, UniProt P03951); experiment: Protease inhibitory activity assay, Factor XIa; settings: 1 μM inhibitor; Factor XIa 1 nM; Boc-Glu(OBzl)-Ala-Arg-MCA 0.12 mM; 25° C.
T7 construct: human Factor XIa (1 nM); purchased Dr. Kazuo Fujikawa, University of Washington, Seattle, WA
T7 sequence (P03951 19-387 limits assumed): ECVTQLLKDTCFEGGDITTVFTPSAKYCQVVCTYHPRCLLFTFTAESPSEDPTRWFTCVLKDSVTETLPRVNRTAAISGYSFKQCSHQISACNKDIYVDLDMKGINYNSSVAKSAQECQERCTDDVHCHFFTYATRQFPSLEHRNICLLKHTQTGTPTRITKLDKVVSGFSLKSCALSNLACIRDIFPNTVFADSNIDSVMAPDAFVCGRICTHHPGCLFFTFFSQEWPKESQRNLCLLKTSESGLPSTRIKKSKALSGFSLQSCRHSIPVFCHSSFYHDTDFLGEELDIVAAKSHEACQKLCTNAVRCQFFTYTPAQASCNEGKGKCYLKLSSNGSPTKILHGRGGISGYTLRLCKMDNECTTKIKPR
T7 sequence (P03951 388-625 limits assumed): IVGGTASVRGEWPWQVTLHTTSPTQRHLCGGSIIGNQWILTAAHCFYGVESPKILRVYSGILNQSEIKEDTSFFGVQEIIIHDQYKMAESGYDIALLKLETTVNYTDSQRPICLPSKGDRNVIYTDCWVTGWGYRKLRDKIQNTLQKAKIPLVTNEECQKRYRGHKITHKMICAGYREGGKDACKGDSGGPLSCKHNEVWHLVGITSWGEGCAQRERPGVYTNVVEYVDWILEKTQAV
Experimental: Boc--Glu(OBzl)--Ala--Arg--MCA
as §1

Cathepsin G = molecular target: T8, Cathepsin G (Homo sapiens, UniProt P08311); experiment: Protease inhibitory activity assay, cathepsin G; settings: 1 μM inhibitor; Suc-Ala-Ala-Pro-Phe-pNA 0.6 mM; 25° C.
T8 construct: purified at Novo Nordisk A/S; tissue Novo Nordisk A/S (purified there); host or cells: leukocytes (by the cited method)
T8 sequence (P08311 21-255): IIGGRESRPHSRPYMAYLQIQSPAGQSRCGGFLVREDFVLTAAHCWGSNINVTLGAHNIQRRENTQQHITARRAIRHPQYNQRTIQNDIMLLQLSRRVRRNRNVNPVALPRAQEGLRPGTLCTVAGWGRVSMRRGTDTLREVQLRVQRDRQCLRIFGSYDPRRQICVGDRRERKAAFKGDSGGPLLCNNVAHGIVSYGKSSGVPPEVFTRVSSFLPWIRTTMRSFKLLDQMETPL
Experimental: Cathepsin G Suc--Ala--Ala--Pro--Phe--pNA
as §5
(0.6 mM) (SEQ ID NO: 19)
as §1

Urokinase = molecular target: T9, Urokinase (Homo sapiens, UniProt P00749); experiment: Protease inhibitory activity assay, urokinase; settings: 1 μM inhibitor; urokinase 5 nM; <Glu-Gly-Arg-pNA 0.6 mM; 25° C.
T9 construct: purchased Serono, Freigung, Germany
Experimental: as §1

human Factor Xa = molecular target: T10, human Factor Xa (Homo sapiens, UniProt P00742); experiment: Protease inhibitory activity assay, Factor Xa; settings: 1 μM inhibitor; Factor Xa 3 nM; MeO-CO-CHA-Gly-Arg-pNA 0.3 mM; 25° C.
T10 construct: human Factor Xa (3 nM); purchased Dr. I. Schousboe, Copenhagen, Denmark
T10 sequence (P00742 41-179 limits assumed): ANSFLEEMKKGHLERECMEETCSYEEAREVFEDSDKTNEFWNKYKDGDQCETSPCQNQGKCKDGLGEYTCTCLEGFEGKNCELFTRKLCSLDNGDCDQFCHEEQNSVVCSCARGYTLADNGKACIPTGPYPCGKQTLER
T10 sequence (P00742 235-488 limits assumed): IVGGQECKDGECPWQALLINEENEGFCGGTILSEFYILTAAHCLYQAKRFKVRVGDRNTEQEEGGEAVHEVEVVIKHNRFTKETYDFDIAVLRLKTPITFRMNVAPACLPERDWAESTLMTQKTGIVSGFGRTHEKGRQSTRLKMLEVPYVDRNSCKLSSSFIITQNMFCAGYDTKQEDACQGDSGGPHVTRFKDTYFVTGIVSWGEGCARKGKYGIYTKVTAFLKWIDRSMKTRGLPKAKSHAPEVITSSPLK
Experimental: The reactions were incubated at 25° C. for ten minutes after which the appropriate chromogenic substrate was added to the final concentration listed in Table 2 and the final reaction was incubated for thirty minutes at 25° C. Amidolytic activity was measured at 405 nm or by fluorescence Em at 460 nm.

Chymotrypsin = experiment: Protease inhibitory activity assay, chymotrypsin; settings: 1 μM inhibitor; chymotrypsin 2.5 nM; MeO-Suc-Arg-Pro-Tyr-pNA 0.6 mM; 25° C.
Experimental: MeO--Suc--Arg--Pro--Tyr--pNA
as §1

[3] = system: GL Kallikrein (glandular kallikrein); experiment: Protease inhibitory activity assay, glandular kallikrein; settings: 1 μM inhibitor; GL kallikrein 1 U/ml; H-D-Val-Leu-Arg-pNA 0.6 mM; 25° C.
Experimental: H--D--Val--Leu--Arg--pNA
as §3, §4, §1

Trypsin = experiment: Protease inhibitory activity assay, trypsin; settings: 1 μM inhibitor; trypsin 8 nM; H-D-Val-Leu-Lys-pNA 0.6 mM; 25° C.
Experimental: Trypsin (8 nM) H--D--Val--Leu--Lys--pNA
as §1

% Inhibition, r.h. Factor VIIa (rec. human Factor VIIa): 15%
% Inhibition, Plasmin (Plasmin): 77%
% Inhibition, r.h. Protein Ca [1]: 0%
% Inhibition, h. Factor XIIa (human Factor XIIa): 6%
% Inhibition, PL Kallikrein [2]: 69%
% Inhibition, Leukocyte Elastase (Leukocyte Elastase): 4%
% Inhibition, h. Factor XIa (human Factor XIa): 99.8%
% Inhibition, Cathepsin G (Cathepsin G): 0%
% Inhibition, Urokinase (Urokinase): 2%
% Inhibition, h. Factor Xa (human Factor Xa): 0%
B1: APPH: Kunitz-type inhibitor domain of the human amyloid protein precursor homologue (SEQ ID NO:2 region 53/56/57-110), expressed in yeast (protein)
chain: GYIEALAANAGTGFAVAEPQIAMFCGKLNMHVNIQTGKWEPDPTGTKSCFETKEEVLQYCQEMYPELQITNVMEANQRVSIDNWCRRDKKQCKSRFVTPFKCLVGEFVSDVLLVPEKCQFFHKERMEVCENHQHWHTVVKEACLTQGMTLYSYGMLLPCGVDQFHGTEYVCCPQTKIIGSVSKEEEEEDEEEEEEEDEEEDYDVYKSEFPTEADLEDFTEAAVDEDDEDEEEGEEVVEDRDYYYDTFKGDDYNEENPTEPGSDGTMSDKEITHDVKAVCSQEAMTGPCRAVMPRWYFDLSKGKCVRFIYGGCGGNRNNFESEDYCMAVCKAMIPPTPLPTNDVDVYFETSADDNEHARFQKAKEQLEIRHRNRMDRVKKEWEEAELQAKNLPKAERQTLIQHFQAMVKALEKEAASEKQQLVETHLARVEAMLNDRRRMALENYLAALQSDPPRPHRILQALRRYVRAENKDRLHTIRHYQHVLAVDPEKAAQMKSQVMTHLHVIEERRNQILSLLYKVPYVAQEIQEEIDELLQEQRADMDQFTASISETPVDVRVSSEESEEIPPFHPFHPFPALPENEDTQPELYHPMKKGSGVGEQDGGLIGAEEKVINSKNKVDENMVIDETLDVKEMIFNAERVGGLEEERESVGPLREDFSLSS
% Inhibition, Chymotrypsin (Chymotrypsin): 61%
% Inhibition, GI Kallikrein [3]: 97%
% Inhibition, Trypsin (Trypsin): 99.6%

Source: patent US5677146A, “Human amyloid protein precursor homolog and kunitz-type inhibitor” (Zymogenetics, Inc., priority 1995, dated 1997)
